Results as given in patent US7173041B2, “Polyglutamic acid-camptothecin conjugates and methods of preparation” (priority 2000, dated 2007).
“Also recorded” adds a separate entry of the source.

How the values were obtained:
B16 melanoma (B-16-F0) = experiment: Tumor growth delay (TGD), subcutaneous B16 melanoma in C57BL/6 mice; assay type: in vivo, murine; details: for relative anti-tumor efficacy (comparison in words): B16 model
Protocol: (§1) Tumors were produced in the […] of the right interscapular region by subcutaneously injecting 1.0×10^5 murine melanoma cells (B-16-F0; ATTC CRL-6322) in a volume of 0.2 ml PBS supplemented with 2% FBS. […] Camptothecin conjugates were dissolved in a 0.1 M Na2HPO4 solution by sonication at 45° C. for 45–60 minutes. Native camptothecins were dissolved in a mixture of 8.3% Cremophor EL/8.3% ethanol in 0.75% saline. All injections were given intraperitoneally (IP). Each treatment group consisted of 10 mice randomly allocated to each group. Tumor volume was calculated according to the formula (length×width×height)/2. Mice with tumors equal to or greater than 2000 mm^3 were euthenized by cervical dislocation. Tumor efficacy of test compounds was determined by calculating the tumor growth delay (TGD): the average time in days for the tumors in the treatment group to reach a fixed volume minus the average time for the tumors in the control group to reach the same volume. An unpaired Student's t-test was done to determine statistical differences. The compounds were tested at different concentrations to determine their MTD. The MTD is the maximum tolerated equivalent camptothecin dose.

[1] = Maximum tolerated dose (MTD) in mice; assay type: in vivo; details: for Murine single dose MTD (IP): mice, loadings as in Table 3
Excerpt: (§2) All injections were given intraperitoneally (IP). […] The MTD is the maximum tolerated equivalent camptothecin dose.

[2] = tested on: HT-29 human colon carcinomas; experiment: Tumor growth delay, HT-29 xenografts in athymic ncr nu/nu mice; details: for TGD (days to 500 mm^3) HT-29: PG 50 kD
Protocol: as §1
(§3) In addition to the above-mentioned models, one other syngeneic model was used viz. LL/2 Lewis lung (ATTC CRL-1642) and 2 xenogeneic models were used viz. human NCI-H460 lung carcinomas (ATTC HTB-177) and HT-29 human colon carcinomas (ATTC HTB-38). In these xenogeneic models instead of immunocompetent C57BL/6 mice, immunocompromised athymic ncr nu/nu mice were used. Except for the number of tumor cells implanted to generate tumors the experimental protocol and procedures were identical to that for the B-16/F0 model.

[3] = Aqueous solubility of PG-camptothecin conjugates; details: for Aqueous solubility: % CPT in conjugate (w/w): PG-CPT 14, PG-gly-CPT 37, PG-(10-OAc-CPT) 13, PG-(10-O-CPT) 13, PG-gly-(10-O-CPT) 20, PG-(10-OH-CPT) 19, PG-(9-NH-CPT) 14
[4] = tested on: human NCI-H460 lung carcinomas; experiment: Tumor growth delay, NCI-H460 xenografts in athymic ncr nu/nu mice; assay type: in vivo; details: PG 50 kD
Protocol: as §1, §3

[5] = tested on: NCI-H322 human lung cancer; experiment: NCI-H322 human lung cancer s.c. in female nude mice; assay type: in vivo; details: 33 kD, 37% loaded, i.v. days 9, 13, 17, 21 at 40 mg/kg 20(S)-camptothecin equivalent
Protocol: The antitumor activity of PG-gly-CPT (33 kD, 37% loaded) on NCI-H322 (ATTC CRL-5806) human lung cancer inoculated s.c. in female nude mice was studied. The drug was injected i.v. on days 9, 13, 17 and 21 at a 20(S)-camptothecin equivalent dose of 40 mg/kg when tumors measured 7–8 mm in diameter. The TGD was 40 days.

[6] = tested on: NCI-H460 human non-small cell lung cancer xenografts; experiment: NCI-H460 xenografts in female nude mice, dosing every 4th day x4; assay type: in vivo
Protocol: Female nude mice with 7–8 mm subcutaneous NCI-H460 human non-small cell lung cancer xenografts were treated with PG-gly-CPT on days 1, 5, 9, and 13 at a dose of 40 mg/kg 20(S)-camptothecin per injection. The tested dose of 40 mg eq. […] Although there were no deaths, weight loss was approximately 20% of the starting weight. The absolute tumor growth delay (defined as difference in days for tumors to grow from 8 mm to 12 mm between the treated and the control groups) was 43 days for the PG-gly-CPT treated mice.

[7] = tested on: NCI-H1299 human lung cancer cells; experiment: NCI-H1299 human lung cancer s.c. in female nude mice; details: 30 mg eq. 20(S)-camptothecin every 4th day x4
Protocol: 20(S)-camptothecin/kg in the prior experiment in nude mice, the dose was lowered to 30 mg eq. 20(S)-camptothecin every 4th day×4.

animal tumor models = experiment: General comparison of PG-camptothecin conjugates in animal tumor models; set-up: species or system mice; details: mouse, in vivo
Excerpt: as §2

[8] = Table 4, PG 50 kD (PG-CPT: 33 kD)
[9] = CPT loading 19%, dose 33 mg CPT/kg
[10] = CPT loading 33%, dose 38 mg CPT/kg
[11] = CPT loading 39%, dose 40 mg CPT/kg
[12] = CPT loading 47%, dose 40 mg CPT/kg
[13] = 40 mg eq. 20(S)-camptothecin/kg every 4th day x4
[14] = second experiment, i.p., same schedule
[15] = CPT loading 30%, dose 34 mg CPT/kg

PG-gly-(10-OH-CPT)
relative anti-tumor efficacy (comparison in words) (B16 melanoma (B-16-F0)): approximately twice as efficacious as PG-gly-(7-Et-10-OH-CPT)

PG-gly-gly-CPT
MTD [1, 8]: ≧33 mg CPT/kg | TGD (days to 500 mm^3) HT-29 [2, 9]: 4.5 days

PG-(10-OAc-CPT)
TGD (B16 melanoma (B-16-F0); 50 mg eq. 20(S)-10-hydroxycamptothecin/kg, p<0.01 compared to control): 5.3 days | relative anti-tumor efficacy (comparison in words) (B16 melanoma (B-16-F0)): appeared more active at 50 mg eq. 20(S)-10-hydroxycamptothecin/kg than PG-gly-(10-O-CPT) | Murine single dose MTD (IP) [1]: 10–20 mg eq. CPT/kg | aqueous solubility / solution behaviour (in words) [3]: solution was very viscous | Aqueous solubility [3]: 10 mg/mL | time after which the compound precipitated out of solution ([3]; dosing solution): approx. 30 min

PG-ala-CPT
TGD (days to 500 mm^3) B16 (B16 melanoma (B-16-F0); CPT loading 20%, dose 73 mg CPT/kg, PG 50 kD): 2.2 days | MTD [1, 8]: ≧73 mg CPT/kg

PG-(β-ala)-CPT
TGD (days to 500 mm^3) B16 (B16 melanoma (B-16-F0); CPT loading 31%, dose 67 mg CPT/kg, PG 50 kD): 1.1 days | MTD [1, 8]: ≧67 mg CPT/kg

PG-gly-CPT
TGD (days to 500 mm^3) B16 (B16 melanoma (B-16-F0); CPT loading 32%, dose 35 mg CPT/kg, PG 50 kD): 3.3 days | MTD in male ncr nu/nu mice ([1]; PG 50 kD, (mono) glycine linker, 35–37% 20(S)-camptothecin): 40 mg/kg 20(S)-camptothecin equivalents | MTD [1, 8]: ~40 mg CPT/kg | Murine single dose MTD (IP) [1]: 60–80 mg eq. CPT/kg | TGD (days to 500 mm^3) NCI-H460 [4, 10]: 15.8 days | TGD (days to 500 mm^3) NCI-H460 [4, 11]: 38.5 days | TGD (days to 500 mm^3) NCI-H460 [4, 12]: 6.5 days | TGD [5]: 40 days | toxicity observations [6, 13]: no deaths; also recorded: modestly exceeded the MTD | weight loss, of the starting weight [6, 13]: approximately 20% | absolute tumor growth delay (tumors to grow from 8 mm to 12 mm, treated vs control) ([6]; 40 mg/kg 20(S)-camptothecin per injection, days 1, 5, 9, 13): 43 days | TGD (days to 500 mm^3) HT-29 [2, 9]: 4.1 days | TGD (days to 500 mm^3) HT-29 ([2]; CPT loading 33%, dose 33 mg CPT/kg): 11.9 days | TGD (days to 500 mm^3) HT-29 [2, 10]: 20.3 days | TGD (days to 500 mm^3) HT-29 [2, 11]: 25.8 days | TGD (days to 500 mm^3) HT-29 [2, 12]: 5.8 days | tolerability of repeated dosing ([2]; ip, 4 times with a weekly interval, total dose 3 times the single dose): very well tolerated | TGD [7]: 32 days | tolerability [7]: well-tolerated

PG-CPT
TGD (days to 500 mm^3) B16 (B16 melanoma (B-16-F0); CPT loading 20%, dose 80? mg CPT/kg, PG 33 kD): 4.0 days | MTD [1, 8]: ≧80 mg CPT/kg | Murine single dose MTD (IP) [1]: 60–80 mg eq. CPT/kg | toxicity observations [6, 14]: without observable toxicity | tumor growth delay [6, 14]: substantial growth delay

PG-(9-NH-CPT)
MTD ([1]; mouse, in vivo): > 25 mg eq. 20(S)-9-aminocamptothecin/kg | Murine single dose MTD (IP) [1]: >25 mg eq. CPT/kg | Aqueous solubility [3]: 7 mg/mL | overall efficacy, tolerability and solubility (in words) (animal tumor models): active

PG-(4-NH-butyryl)-CPT
TGD (days to 500 mm^3) B16 (B16 melanoma (B-16-F0); CPT loading 32%, dose 80 mg CPT/kg, PG 50 kD): 0.9 days | MTD [1, 8]: ≧80 mg CPT/kg

PG-(4-O-butyryl)-CPT
TGD (days to 500 mm^3) B16 (B16 melanoma (B-16-F0); CPT loading 32%, dose 37 mg CPT/kg, PG 50 kD): 2.8 days | MTD [1, 8]: ~36 mg CPT/kg | TGD (days to 500 mm^3) HT-29 ([2]; CPT loading 24%, dose 36 mg CPT/kg): 13.1 days

PG-(10-O-CPT)
Murine single dose MTD (IP) [1]: 50 mg eq. CPT/kg | Aqueous solubility [3]: 10 mg/mL

PG-gly-gly-gly-CPT
MTD [1, 8]: ≦34 mg CPT/kg | TGD (days to 500 mm^3) NCI-H460 [4, 15]: 38.5 days | TGD (days to 500 mm^3) HT-29 [2, 9]: 6.9 days | TGD (days to 500 mm^3) HT-29 [2, 15]: 28.4 days

PG-(2-O-acetyl)-CPT
TGD (days to 500 mm^3) B16 (B16 melanoma (B-16-F0); CPT loading 15%, dose 80 mg CPT/kg, PG 50 kD): 3.8 days | MTD [1, 8]: ≧80 mg CPT/kg

PG-(γ-glu)-CPT
TGD (days to 500 mm^3) B16 (B16 melanoma (B-16-F0); CPT loading 21%, dose 54 mg CPT/kg, PG 50 kD): 0.8 days | MTD [1, 8]: ≧54 mg CPT/kg

PG-(10-OH-CPT)
relative anti-tumor efficacy (comparison in words) (B16 melanoma (B-16-F0)): not as effective as the PG-(10-OAc-CPT) or the PG-gly-(10-OH-CPT) | Murine single dose MTD (IP) [1]: >50 mg eq. CPT/kg | Aqueous solubility [3]: >10 mg/mL

PG-gly-(10-O-CPT)
Aqueous solubility [3]: >10 mg/mL
